# From the DeepSol protein solubility set
# Assay: soluble on expression in E. coli; label from the status in PepcDB or PDB records
row,Sequence,soluble on expression in E. coli
1,TATNHQGLPAVDSEILEMPPEKADGVVEGIDVNGPKAQLMLRYPDGKREQITLPEQAKLLALVKHVQSKGYPNERFELLTNFPRRKLSHLDYDITLQEAGLCPQETVFVQE,soluble
2,MLDLTTNPIDLTRALVDIESPSHYEKNIADAIEQALHAIDNVEVLRHGNTLVARTHRGLGERVILAGHIDTVPIADNVPSHMEGDVMFGCGTVDMKSGMAVYLHAFATLANHPALAKDLTVVCYEGEEVASEYNGLGHVQAAHPDWLSGDLALLGEPSGAVIEAGCQGTIRLRVTAHGVRAHSARSWLGDNAMHKLAPVITNIAQYHAQEMLVDGCLYHEGLNIVHCESGVATNTIPDEAWMFVNFRFAPNRSVDEALAHMLEVLDLPEGVTYDIDDAVPGARPGLDRPAAAALLEATGGKFRAKYGWTDVSRFSEIGVPAVNFGPGDPAYCHKKDEQCPVSMITEVSRTLVHYLTSTNSQTTGA,not soluble
3,MSLAVLGDVARLADVSTATVSRVYNEPDKVSPSVRERVLQAAAALNWIPNAAGRALASTRTHIAGAIIPTLDDQVFASQVAGMQAVFAERGITLFLGCSNYDPAQALIQVRAMLARGVEVIAIVGEAHPPELFDALKQARVPYAITYAYREGSPHHCIGFDNRAAFVAIAEHLLALGHRTFAAVIQPARDNDRVQARVAGIREALERHGIAVRPSHLHEGPATIAFGRQSLRAIWQGADERPTAIICGNDQLAIGVLLEAAELGIKVPQQLSVTGFDDVAIAQQIHPSLTTVRVDTAEIGRRAARYLLDVLDGKEAAESGLVQPELMVRESTAEGHHHHHH,soluble
4,GSHMSQLYASLFYQRDVTEIFSDRALVSYMVEAEVALAQAQAQVGVIPQSAATVIQRAAKTAIDKIDFDALATATGLAGNIAIPFVKQLTAIVKDADEDAARYVHWGATSQDILDTACILQCRDALAIVQNQVQQCYETALSQAQTYRHQVMMGRTWLQQALPITLGHKLARWASAFKRDLDRINAIKARVLVAQLGGAVGSLASLQDQGSIVVEAYAKQLKLGQTACTWHGERDRIVEIASVLGIITGNVGKMARDWSLMMQTEIAEVFEPTAKGRGGSSTMPHKRNPVAAASVLAAANRVPALMSSIYQSMVQEHERSLGAWHAEWLSLPEIFQLTAGALERTLDVLKGMEVNAENMHQNIECTHGLIMAEAVMMALAPHMGRLNAHHVVEAACKTAVAEQKHLKDIISQVDEVKQYFNPSQLDEIFKPESYLGNIQDQIDAVLQEAKGEAK,soluble
5,MTAPGSVPLTVIGGFWGAGKTTLLNYLLKVQHSERVLVMVNDFGSINIDAELLDQGRHDRPGVVRLQNGCVCCSIGGDLMQAFLQVMSMPDRPDRIIVEASGVADPTRIAQIGRVSGGLSDEGVITLVDASAVRALAADKYVGDIVRQQILSADIVLLNKLDLSSDAEIVETRAWLRDLAPRTRVVSCIHGEVDAVSVLGIGAGKVAPDTAGGPVDVPVPDLRRASTRHADTFHSSTLATEHRFDRRRIEYALDALPQTVLRGKGFVELEGEATPALLQLCGSRWTLDPVSTPAPPAGTHLVFIATGGRGVPRFDAPSHFEQALASRDAASADTSNLEHHHHHH,not soluble
6,MAAFSQLYDLHINILFNYGLKLTIDKELLKDCIHDIFVKLYTKKDELGTIDNLKSYLFISLKNKLCDELRKRMYMSDTAIEDVNAVAPTDVEDDYMEEEQRKNEFSLVKRLLDQLSPRQREALTLYYIEEKKYEDICEIMNMNYQSVRNLMHRGLTKLRSLAS,not soluble
7,MAEEQARHVKNGLECIRALKAEPIGSLAIEEAMAAWSEISDNPGQERATCREEKAGSSGLSKPCLSAIGSTEGGAPRIRGQGPGESDDDAETLGIPPRNLQASSTGLQCHYVYDHSGEAVKGIQDADSIMVQSGLDGDSTLSGGDNESENSDVDIGEPDTEGYAITDRGSAPISMGFRASDVETAEGGEIHELLRLQSRGNNFPKLGKTLNVPPPPDPGRASTSGTPIKKGTDARLASFGTEIASSLTGGATQCARKSPSEPSGPGAPAGNVPECVSNAALIQEWTPESGTTISPRSQNNEEGGDHYDDELFSDVQDIKTALAKIHEDNQKIISKLESLLLLKGEVESIKKQINRQNISISTLEGHLSSIMIAIPGLGKDPNDPTADVEINPDLKPIIGRDSGRALAEVLKKPVASRQLQGMTNGRTSSRGQLLKEFQLKPIGKKMSSAVGFVPDTGPASRSVIRSIIKSSRLEEDRKRYLMTLLDDIKGANDLAKFHQMLVKIIMK,soluble
8,MSLQTIEEMDAYPAVDDSGDHLLDPNMIPTAATEVVMSGDGIERQFGDEEDTYQYEYTYEDDPQLEIGEEEVVVTDEAEYQEHWKDEEK,not soluble
9,MGNIMSASFAPECTDLKTKYDSCFNEWYSEKFLKGKSVENECSKQWYAYTTCVNAALVKQGIKPALDEAREEAPFENGGKLKEVDK,soluble
10,MGSDKIHHHHHHMPLLDIRNLTIELDTPHGRVKALERVSLTLNPGEVHGLVGESGSGRTLLAKAILGIPGHNWTIQADRMMWDGQNLMDMSPSERRVLMGSEMAMIFQDPISSLDPAIAVGTQIIEAMPENKELPWWKRGSDKRKKAQQWLHKVGIKETQKIMSSYAWELSDGECQKVMIAIAVANQPRLLIADEPTNSMEVRTQAQIFRLLSKLNQLQNVSILLISHELETLSQWCDRLTVMYSGQVMESGVTSDVIANPYHPYTKALLDNIPDYSNPEHHKTMMQTLPGSAPALQHLPIGCRLGPRCPQAQKLCVNQPSLCHQKDRYFACHFPYHNEPCHEEPLTKS,not soluble
11,MKYQVLLYYKYTTIEDPEAFAKEHLAFCKSLNLKGRILVATEGINGTLSGTVEETEKYMEAMQADERFKDTFFKIDPAEEMAFRKMFVRPRSELVALNLEEDVDPLETTGKYLEPAEFKEALLDEDTVVIDARNDYEYDLGHFRGAVRPDIRSFRELPQWIRENKEKFMDKKIVTYCTGGIRCEKFSGWLLKEGFEDVAQLHGGIANYGKNPETRGELWDGKMYVFDDRISVEINHVDKKVIGKDWFDGTPCERYINCANPECNRQILTSEENEHKHLGGCSLECSQHPANRYVKKHNLTEAEVAERLALLEAVEV,not soluble
12,MNIVAKPTSFISGAVDGVVDLKNTYTENQHLKERLEELAQLESEVADLKKENKDLKESLDITDSIRDYDPLNASVISRNPTNWNDQVEIDKGSSDGVKPDMAVTTPSGLIGKVTTTGAKSATVELLTSSDVKNRVSAKVQGKENAFGIINGYDSDTKLLELKQLPYDMKFKKGQKVVTSGLGGKFPAGIFIGTIEKVETDKMGLSQTAFIKPGADMYDLNHVTVLKRSAEAGTTDDDTTSSDTTGGQGSHHHHHH,soluble
13,MGSDKIHHHHHHMQKKRFFDMRKYRFFSSIECDAMLTFKQMEALYWIVQLGSFDAAATRLNTTQSAVSKRIQELERAFDLTVFDRAHRSARLTDKGAELFDHAKELLEQRDRVVERMSSKEALVRHVRIGVTELTALTWLPRLIAAIQAAYPRVHVEAEVDLTATLRERLAADTIDLIVVPQIHAAESFAATVVGEVDNAWMCAPGFMPKRKTAISLTDVARFPLILQGTLSGTGHLYTRFLQEHCVAMQRVLTSNSLIAQIGLTLSGLGVSYLPKACVAHLVACEALDIVRTRPALPPVRYVALHRAERAHSLTADIVRLAAQACDFSTSLLDPGAHD,not soluble
14,GAERTIQLPKPDMNRAGLLMKALSERHSTREYASKALSNTDLSDLLWAANGINRSSEGKRTAPSAMNRQDIDIYVVLPQGTYLYDAKGHKLNLISEGDHRSAVAGGQAFVNNAPVSLVLVSDLSKLGDAKSNHVQLMGAMDAGIVSQNISLFCSAARLATVPRASMDLVRLKAALKLKDTQMPMMNHPVGYFK,soluble
15,MGSDKIHHHHHHMCSEGLRERYVNPYTDFAFKLLFGTDLNKEILIGFLNALFDGKQVIEDVIYLNTEHLGSKETDRRAVFDVYCENEKGEKILIEMQRGEQQFFKDRSIYYATYPIREQAIKGEIWNYELKAVYVIGILNFALDDVSSSGFRHEVKLMDTTTHEVFFDKLTFVYLEMPKFHKTEQELDTLFDKWMFVLKNLARLMERPTSLQERVFNRLFEAAEIAQFSKENLYAYEESLKVYRDWNNVINTAIQKGIAEGEWMKAKAIAGNLKNAGLSIAEIAKVTGLSEDEINSL,not soluble
16,MDALFNHKEFIRLSHEGNINYEKLKVPKNTELVNTADQRNSHVYLIIDGFVSISMNPESNSIYTILGKGSFVNYYSLFQGNVDDFLFKTISTCTVYKYTFKDLEYFLSMFPENFGFQFFIMRDLARHAFFKSLSSETSSSDKLELSFINIGKLHGTPYEKDSVILPKEMRTSVIAAYSNLSKSSFYKQLARLKDQGKIWKNDREWVLKNKEVYDYLKAREIDV,not soluble
17,MVWTYTYDLDNQLISANKTGSSNSLAYDGAGRLRQTTLAGTITGLTYDGVDLVAEYNSGGTLLRRYVHGPGVDEPLVWYEGTTTTNKTWLYQDQLGSVIGTANSAGTSTAIHSYGPYGEPNIATGIRFRYTGQQFLGSLNLYYYKARFYSPALGRFLQTDPIGIADDLNLYAYVGNNPINFNDPSGLSAAAASMLLGKLGSWGRENAGTLTEIGIGFTPAGFYTDLYSAVAGRTPITGDSLSGWERVAILIPGVSEIRNAGRIGSSIQGVAESTIKQVNPTNLIPTQTRSEMSGSQIKRLEKDMRTNGFDQNKPIDAVRRTDGRLEIQDGHHRVEAAKRAGIDQIPVQIWEKLEHHHHHH,not soluble
18,MSLIMKVVVKVGSNLLVGSSGLRKSYIAELCREVARLKSQGHEISIITSGARAAGFTYLGKGKRTQDLHIKQALCAVGQVQLMKVYENAFDFYGIKIAQILLTRDTFSNRKRYLNLRNTLIGLSEFDVVPIVNENDTVATEEITLGDNDTLAAMFSIAWDADFLVLFTTVDGVIDENGKLVERFDESVKLKDMGKSSWGTGGIRSKIESALMASRCGVKATICSGNDVSNLTRFVKGEPVGTVFEPQGRLKAKKAWIAFLSEPAGKIYVNKGAEEALKSGNSLLPVGVTGVEGTFDVGDVVEIVNEEGELVGRGIVNYSSSDLEKIAGHKSSDLKKILGYEGNKVVVHIDNMWVAEGHHHHHH,soluble
19,GLMALLMVFAVSIGGLTQIVPLFFQDVTNKPVEGMKPYTALQLEGRDVYIREGCVGCHSQMIRPFRAETERYGHYSVAGESVWDHPFLWGSKRTGPDLARVGGRYSDDWHRAHLYNPRNVVPESKMPSYPWLVAQPVDNSHTDVKMRTLRTLGVPYTDDDIAGAREAVKGKTEMDALVAYLQVLGT,not soluble
20,MSLINVQNVSKTFILHQQNGVRLPVLNRASLTVNAGECVVLHGHSGSGKSTLLRSLYANYLPDEGQIQIKHGDEWVDLVTAPARKVVEIRKTTVGWVSQFLRVIPRISALEVVMQPLLDTGVPREACAAKAARLLTRLNVPERLWHLAPSTFSGGEQQRVNIARGFIVDYPILLLDEPTASLDAKNSAAVVELIREAKTRGAAIVGIFHDEAVRNDVADRLHPMGASEGHHHHHH,not soluble
21,MGSDKIHHHHHHMFSRRFRRLSPRDIIGGDVTLRRPSVAEALAVASASFIASFYVSGETILLAAGLALGGLAIASSLPARAGRVFIAGIRLEFMIPGRIVEGEVRTGRLLVENRTLNPMVLKIILKPEEGLEVEPERAEVHAPPLSRRSISLVVKPRFGRYKLIASIEEARSPLGLWSLQPEQPQTAVEVLATPKPEVVSEDISVLTGPGSLDRGREGSGLDYRSFREYQPGDDPRSIEWKLTGRRGAPVVREVEGAESSKPVRLVLAIRPQHYRKPLYNSPYGAAARRLYTISMMLAEEGVRHSVLLPGARGFQELEISTPRDTLELGLALAIYTPEDPPIDYAYLIEDLARRDSPVIVVSPKGTLGEIVDKDRVYVLEV,not soluble
22,MKLTPEMLTGKSREHLVNLPTTHSSNHFLQTQAVQAFQALQQSAAKNGFNLQPASSFRDFERQQLIWNSKFKGERKVHDDAGKALDLNQLDDWQKCQAILRWSALLRLVVIIGERKWIFLILIFCHEVNLYNWSLGNMKKAATSLN,not soluble
